In US20210253688A1 (UCB, published 2021):
Residue numbers refer to the chain shown, from its start.

T1: mouse Gremlin (mouse, UniProt O70326 25-184)
T1 sequence (looked up): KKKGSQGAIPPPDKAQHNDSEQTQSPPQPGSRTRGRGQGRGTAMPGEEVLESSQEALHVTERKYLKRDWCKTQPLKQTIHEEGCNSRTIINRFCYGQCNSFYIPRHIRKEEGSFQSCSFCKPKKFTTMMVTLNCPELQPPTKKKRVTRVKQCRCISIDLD

T2: BMP4/7 heterodimer (human, UniProt P12644 293-408; P18075 293-431)
T2 sequence (looked up) 1: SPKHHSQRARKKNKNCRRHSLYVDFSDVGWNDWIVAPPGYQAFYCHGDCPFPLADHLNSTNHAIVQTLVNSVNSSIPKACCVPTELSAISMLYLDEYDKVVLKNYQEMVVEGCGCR
T2 sequence (looked up) 2: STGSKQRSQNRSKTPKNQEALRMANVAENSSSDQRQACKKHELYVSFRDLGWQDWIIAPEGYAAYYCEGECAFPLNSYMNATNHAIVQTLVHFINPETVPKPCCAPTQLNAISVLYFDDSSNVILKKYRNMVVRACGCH

B1: Ab7326 (format in the assay not stated) (antibody, V domains shown)
VH: QVQLVESGAEVKKPGATVKISCKVSGYTFTDYYMHWVQQAPGKGLEWMGLVDPEDGETIYAEKFQGRVTITADTSTDTAYMELSSLRSEDTAVYYCATDARGSGSYYPNHFDYWGQGTLVTVSS
VL: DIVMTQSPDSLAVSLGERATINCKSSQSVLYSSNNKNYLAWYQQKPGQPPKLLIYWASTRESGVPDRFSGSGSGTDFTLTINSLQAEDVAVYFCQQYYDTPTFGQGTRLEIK
B2: Ab7326 mouse full length IgG1 (antibody, V domains shown)
VH: B1 VH
VL: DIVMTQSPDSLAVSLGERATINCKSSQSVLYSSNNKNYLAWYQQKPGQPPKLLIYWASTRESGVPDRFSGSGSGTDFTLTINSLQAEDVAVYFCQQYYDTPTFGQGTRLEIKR
notes: also called anti-Gremlin mIgG; UCB Ab7326 mouse IgG1
B3: human Gremlin-1 (full length; recombinant human Gremlin 1) (ligand)
chain: T1 sequence (looked up) with P27Q, T33N
B4: truncated human Gremlin-1 (E. coli expressed, refolded, N-terminal 6His-TEV tag) (ligand)
chain: MGSSHHHHHHSSGENLYFQGSAMPGEEVLESSQEALHVTERKYLKRDWCKTQPLKQTIHEEGCNSRTIINRFCYGQCNSFYIPRHIRKEEGSFQSCSFCKPKKFTTMMVTLNCPELQPPTKKKRVTRVKQCRCISIDLD

Key:
mouse Gremlin = target: T1, mouse Gremlin; assay: cell-based or functional assay
[1] = target: B3; assay: cell-based or functional assay
[2] = target: B3; assay: SPR, Biacore T200, 25 °C; mIgG captured on anti-mouse Fc, recombinant human Gremlin 1 titrated from 5 nM; average of 5 determinations
Procedure: The affinity of anti-Gremlin mIgG for human Gremlin 1 was determined by biamolecular interaction analysis using surface plasmon resonance (SPR) technology on a Biacore T200 system, GE Healthcare Bio-Sciences AB. Anti-Gremlin mIgG was captured by an immobilised anti-mouse Fc surface and Gremlin 1 was titrated over the captured mIgG. The capture ligand (affinipure F(ab′)₂ fragment of goat anti-mouse IgG, Fc fragment specific, 115-006-071, Jackson ImmunoResearch Inc.) was immobilised at 50 μg/ml in 10 mM NaAc, pH 5.0 on flow cell 2 of a CM4 Sensor Chip via amine coupling chemistry, using 600 s activation and deactivation injections, to a level of ˜1600 response units (RU). HBS-EP+ buffer (0.01 M HEPES pH 7.4, 0.15 M NaCl, 3 mM EDTA, 0.05% Surfactant P20) was used as the running buffer with a flow rate of 10 μ1/min. A reference surface was prepared on flow cell 1 by activating and deactivating the surface as for flow cell 2 but omitting the capture ligand.
The assay buffer was HBS-EP+ plus an extra 150 mM NaCl to give a final NaCl concentration of 300 mM plus 1% CMD40. A 60 s injection of anti-Gremlin mIgG (at 5 μg/ml in running buffer) was passed over flow cells 1 and 2 to give a capture level of approximately 100 RU on the immobilised anti-mouse IgG, Fc surface. […]
The kinetic data was determined using Biacore T200 evaluation software.

BMP4/7 heterodimer = target: T2, BMP4/7 heterodimer; assay: cell-based or functional assay

Binder: B1
IC50, Hek-Id1 reporter gene assay, restoration of BMP signalling (mouse Gremlin): 0.2 nM
IC50, Hek-Id1 reporter gene assay, restoration of BMP signalling [1]: 1.3 nM

Binder: B2
Kd [2]: < 0.1 nM

Binder: B3
IC50, Hek-Id1 reporter gene assay, geometric mean (N=2) (BMP4/7 heterodimer): 1.6 nM

Binder: B4
IC50, Hek-Id1 reporter gene assay, geometric mean (N=2) (BMP4/7 heterodimer): 1.7 nM
